T1: OsSMF1 (Oryza sativa, UniProt Q6ZLB0 1-436)
T1 sequence: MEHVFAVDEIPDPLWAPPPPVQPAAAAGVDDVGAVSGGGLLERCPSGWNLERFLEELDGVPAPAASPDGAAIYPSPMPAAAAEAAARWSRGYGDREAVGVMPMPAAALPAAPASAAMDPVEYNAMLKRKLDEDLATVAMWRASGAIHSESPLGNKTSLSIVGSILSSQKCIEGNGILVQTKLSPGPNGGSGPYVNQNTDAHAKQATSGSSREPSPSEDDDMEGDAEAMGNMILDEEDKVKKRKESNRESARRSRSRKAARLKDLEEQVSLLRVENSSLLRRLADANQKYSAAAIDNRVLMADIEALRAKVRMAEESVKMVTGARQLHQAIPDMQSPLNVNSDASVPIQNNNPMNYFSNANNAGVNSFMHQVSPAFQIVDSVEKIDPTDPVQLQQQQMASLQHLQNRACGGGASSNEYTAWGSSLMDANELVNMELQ

B1: Os05g0415400_39 (ONAC024 promoter probe) (dsDNA)
DNA 1: GATAATGAGTCAGTCCTCTTGTCGATACTCCGCCGGTATG
DNA 2: CATACCGGCGGAGTATCGACAAGAGGACTGACTCATTATC
B2: Os01g0311500_18 (dsDNA)
DNA 1: TTGACGCCGTTGACTTTTTAGTACATGTTTGACCATTCGT
DNA 2: ACGAATGGTCAAACATGTACTAAAAAGTCAACGGCGTCAA
B3: Os01g0393100_8 (ONAC026 promoter probe) (dsDNA)
DNA 1: CTGGAATCTGAGGGGAACCACGTCACGTACACAAGTATAT
DNA 2: ATATACTTGTGTACGTGACGTGGTTCCCCTCAGATTCCAG

Tests used:
OsSMF1 = target: T1, OsSMF1; experiment: EMSA; EMSA: 5 ug protein, 40 fmol FAM-dsDNA, 1 ug poly(dI-dC), 1X binding buffer (Pierce), 2.5% glycerol, 0.05% NP-40, 20 ul, 1 h room temperature; 6% acrylamide gel; details: protein: recombinant; tags: N-terminal polyhistidine and DsRed monomer fusion (pET32a); chain copies: 2; label: 5' FAM; blunt
OsWRKY34 = OsWRKY34 (Oryza sativa, UniProt Q0JBA9 1-250); experiment: as above; details: protein: recombinant; tags: N-terminal polyhistidine and DsRed monomer fusion (pET32a); label: 5' FAM; blunt
Sequence of OsWRKY34 (Q0JBA9 entry or part of it): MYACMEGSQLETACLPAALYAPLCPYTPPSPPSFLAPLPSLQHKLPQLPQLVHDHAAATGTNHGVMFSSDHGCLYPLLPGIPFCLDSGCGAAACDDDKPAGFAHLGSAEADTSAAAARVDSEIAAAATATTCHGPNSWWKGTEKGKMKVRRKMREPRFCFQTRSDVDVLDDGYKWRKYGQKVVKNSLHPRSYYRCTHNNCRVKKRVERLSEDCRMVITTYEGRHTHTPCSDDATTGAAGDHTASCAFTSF

Binder	binding result (OsSMF1)	binding result (OsWRKY34)
B1	binds	–
B2	–	binds
B3	binds	–

Source: paper PMC7819943, “Rice protein-binding microarrays: a tool to detect cis-acting elements near promoter regions in rice”
